Assay results taken from publication PMC5807433, “PP5 (PPP5C) is a phosphatase of Dvl2” (Scientific Reports, 2018).

Molecular target: T1, FLAG-Dvl2 (full-length human Dishevelled 2) (human, UniProt O14641 1-736)
T1 construct: Dishevelled 2 (Dvl2), human, full length; also called FLAG-tagged Dvl2; full-length Dvl2; source: HEK293T, transfected (pCS2+), in lysate; also purified from transfected HEK293T with FLAG M2 beads and eluted with FLAG peptide; not shown: FLAG, N-terminal, kept
T1 sequence (looked up): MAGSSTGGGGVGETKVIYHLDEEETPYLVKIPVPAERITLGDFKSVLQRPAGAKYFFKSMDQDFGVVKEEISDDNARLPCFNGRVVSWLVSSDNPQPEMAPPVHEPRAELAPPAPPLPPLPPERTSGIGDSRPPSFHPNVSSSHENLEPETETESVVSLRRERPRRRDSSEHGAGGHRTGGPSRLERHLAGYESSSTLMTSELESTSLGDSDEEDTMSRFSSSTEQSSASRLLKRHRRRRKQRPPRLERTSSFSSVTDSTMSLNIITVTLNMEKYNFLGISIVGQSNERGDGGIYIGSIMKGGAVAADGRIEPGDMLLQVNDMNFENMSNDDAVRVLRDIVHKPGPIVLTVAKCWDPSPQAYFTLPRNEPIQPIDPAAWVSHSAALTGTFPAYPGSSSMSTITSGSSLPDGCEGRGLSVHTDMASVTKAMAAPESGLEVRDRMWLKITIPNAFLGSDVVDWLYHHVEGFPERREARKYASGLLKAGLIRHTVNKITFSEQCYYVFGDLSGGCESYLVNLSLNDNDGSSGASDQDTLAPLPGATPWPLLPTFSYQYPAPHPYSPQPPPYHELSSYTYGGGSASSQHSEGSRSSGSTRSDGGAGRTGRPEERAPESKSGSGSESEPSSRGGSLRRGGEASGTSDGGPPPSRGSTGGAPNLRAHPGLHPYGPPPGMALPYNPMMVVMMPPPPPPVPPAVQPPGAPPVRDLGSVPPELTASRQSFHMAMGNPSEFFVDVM
Experiment: pull-down; GST pull-down: FLAG-Dvl2 purified from transfected HEK293T incubated with PP5 protein purified from E. coli and Glutathione Sepharose 4B beads; GST as negative control
Conditions: both partners purified

B1: GST-PP5 (wild type) (enzyme, human, UniProt P53041 1-499, looked up)
chain: MAMAEGERTECAEPPRDEPPADGALKRAEELKTQANDYFKAKDYENAIKFYSQAIELNPSNAIYYGNRSLAYLRTECYGYALGDATRAIELDKKYIKGYYRRAASNMALGKFRAALRDYETVVKVKPHDKDAKMKYQECNKIVKQKAFERAIAGDEHKRSVVDSLDIESMTIEDEYSGPKLEDGKVTISFMKELMQWYKDQKKLHRKCAYQILVQVKEVLSKLSTLVETTLKETEKITVCGDTHGQFYDLLNIFELNGLPSETNPYIFNGDFVDRGSFSVEVILTLFGFKLLYPDHFHLLRGNHETDNMNQIYGFEGEVKAKYTAQMYELFSEVFEWLPLAQCINGKVLIMHGGLFSEDGVTLDDIRKIERNRQPPDSGPMCDLLWSDPQPQNGRSISKRGVSCQFGPDVTKAFLEENNLDYIIRSHEVKAEGYEVAHGGRCVTVFSAPNYCDQMGNKASYIHLQGSDLRPQFHQFTAVPHPNVKPMAYANTLLQLGMM
notes: Protein phosphatase 5 (PP5, PPP5C), wild type; Probably full length; also called PP5 protein purified from E. coli; bacterially expressed and purified PP5; source: E. coli BL21 (pPGH vector, IPTG), purified with Glutathione Sepharose 4B beads; not shown: GST, N-terminal, kept
binding result: binds
